# Laboratory results published in article PMC5500849, “Cobamide-mediated enzymatic reductive dehalogenation via long-range electron transfer” (Nature Communications, 2017).
# Key:
# [1] = substrate: Oc1ccc(Br)cc1; experiment: purified protein; conditions: reduced methyl viologen 0.5 mM / Ti(III) citrate 1.4 mM, 100 mM Tris-HCl pH 7.5, 22 °C, no NH4+, kcat at Table 1
# [2] = substrate: Oc1ccc(Br)cc1Br; experiment: purified protein; conditions: reduced methyl viologen 0.5 mM / Ti(III) citrate 1.4 mM, 100 mM Tris-HCl pH 7.5, 22 °C, no NH4+, kcat at Table 1, kcat includes further reduction to phenol
protein,measurement,setting,value
PceA (PceA–Strep) (Sulfurospirillum multivorans) (protein) AEKEKNAAEIRQQFAMTAGSPIIVNDKLERYAEVRTAFTHPTSFFKPNYKGEVKPWFLSAYDEKVRQIENGENGPKMKAKNVGEARAGRALEAAGWTLDINYGNIYPNRFFMLWSGETMTNTQLWAPVGLDRRPPDTTDPVELTNYVKFAARMAGADLVGVARLNRNWVYSEAVTIPADVPYEQSLHKEIEKPIVFKDVPLPIETDDELIIPNTCENVIVAGIAMNREMMQTAPNSMACATTAFCYSRMCMFDMWLCQFIRYMGYYAIPSCNGVGQSVAFAVEAGLGQASRMGACITPEFGPNVRLTKVFTNMPLVPDKPIDFGVTEFCETCKKCARECPSKAITEGPRTFEGRSIHNQSGKLQWQNDYNKCLGYWPESGGYCGVCVAVCPFTKGNIWIHDGVEWLIDNTRFLDPLMLGMDDALGYGAKRNITEVWDGKINTYGLDADHFRDTVSFRKDRVKKS,Km,[1],99 µM
same,kcat,[1],809 s⁻¹
same,Km,[2],95 µM
same,kcat,[2],252 s⁻¹
